Measured values from the supplement of paper PMC9112550, “Optimization of the antimicrobial peptide Bac7 by deep mutational scanning” (BMC Biology, 2022).

Tested on: Escherichia coli TOP10
Test: shrunken log2 fold change of peptide-encoding DNA abundance (4.5 h post-induction vs induction); higher = less antimicrobial activity (less host growth inhibition)
Settings: time post-induction: 4.5 h; library: site-saturation at positions 5, 18, 19, 20
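Further: peptides expressed intracellularly from a pBAD plasmid library in pooled LB shake-flask culture, induced with 0.3% L-arabinose, DNA abundance read by NGS, three biological replicates, DESeq2 with apeglm shrinkage.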

Row | Sequence | shrunken log2 fold change
1 | RRIRDRPPRLPRPRPRPWIRPRP | -0.24
2 | RRIRDRPPRLPRPRPRPWISPRP | -0.00776
3 | RRIRDRPPRLPRPRPRPWLHPRP | -0.00955
4 | RRIRDRPPRLPRPRPRPWMAPRP | -0.499
5 | RRIRDRPPRLPRPRPRPWNAPRP | 0.0296
6 | RRIRDRPPRLPRPRPRPWPAPRP | 0.308
7 | RRIRDRPPRLPRPRPRPWPIPRP | 0.00865
8 | RRIRDRPPRLPRPRPRPWSFPRP | 0.0765
9 | RRIRDRPPRLPRPRPRPWVPPRP | 0.164
10 | RRIRDRPPRLPRPRPRPWVSPRP | -0.0385
11 | RRIRDRPPRLPRPRPRPWWFPRP | -0.00226
12 | RRIRDRPPRLPRPRPRPWWRPRP | 0.116
13 | RRIRDRPPRLPRPRPRPWYMPRP | -0.315
14 | RRIRDRPPRLPRPRPRPYCIPRP | -0.205
15 | RRIRDRPPRLPRPRPRPYCWPRP | 0.085
16 | RRIRDRPPRLPRPRPRPYDRPRP | -0.0075
17 | RRIRDRPPRLPRPRPRPYEDPRP | 0.0115
18 | RRIRDRPPRLPRPRPRPYEPPRP | -0.017
19 | RRIRDRPPRLPRPRPRPYFAPRP | -0.413
20 | RRIRDRPPRLPRPRPRPYFHPRP | -0.678
21 | RRIRDRPPRLPRPRPRPYHKPRP | -0.0174
22 | RRIRDRPPRLPRPRPRPYIWPRP | -0.373
23 | RRIRDRPPRLPRPRPRPYKQPRP | -0.0404
24 | RRIRDRPPRLPRPRPRPYKVPRP | -0.687
25 | RRIRDRPPRLPRPRPRPYKYPRP | -0.661

Row | Sequence | shrunken log2 fold change
26 | RRIRDRPPRLPRPRPRPYLDPRP | -0.0026
27 | RRIRDRPPRLPRPRPRPYPTPRP | -0.635
28 | RRIRDRPPRLPRPRPRPYPWPRP | -0.136
29 | RRIRDRPPRLPRPRPRPYQKPRP | 0.0212
30 | RRIRDRPPRLPRPRPRPYRKPRP | -0.0111
31 | RRIRDRPPRLPRPRPRPYRMPRP | -0.0515
32 | RRIRDRPPRLPRPRPRPYRRPRP | -0.0062
33 | RRIRDRPPRLPRPRPRPYSWPRP | 0.016
34 | RRIRDRPPRLPRPRPRPYTVPRP | -0.00865
35 | RRIRDRPPRLPRPRPRPYVHPRP | -0.407
36 | RRIRDRPPRLPRPRPRPYVSPRP | -0.032
37 | RRIRDRPPRLPRPRPRPYWTPRP | -0.195
38 | RRIRDRPPRLPRPRPRPYYHPRP | -0.972
39 | RRIRDRPPRLPRPRPRPYYQPRP | -1.03
40 | RRIRDRPPRLPRPRPRPYYSPRP | 0.0804
41 | RRIRERPPRLPRPRPRPAAQPRP | 0.261
42 | RRIRERPPRLPRPRPRPAASPRP | 0.141
43 | RRIRERPPRLPRPRPRPAAWPRP | 0.443
44 | RRIRERPPRLPRPRPRPACEPRP | -0.112
45 | RRIRERPPRLPRPRPRPACGPRP | 0.14
46 | RRIRERPPRLPRPRPRPACTPRP | -0.224
47 | RRIRERPPRLPRPRPRPAEWPRP | 0.143
48 | RRIRERPPRLPRPRPRPAFQPRP | 0.0677
49 | RRIRERPPRLPRPRPRPAILPRP | -0.629
50 | RRIRERPPRLPRPRPRPAIPPRP | -0.737

Row | Sequence | shrunken log2 fold change
51 | RRIRERPPRLPRPRPRPALSPRP | 0.15
52 | RRIRERPPRLPRPRPRPALYPRP | -0.129
53 | RRIRERPPRLPRPRPRPAMQPRP | 0.0339
54 | RRIRERPPRLPRPRPRPAQKPRP | 0.192
55 | RRIRERPPRLPRPRPRPASDPRP | -0.105
56 | RRIRERPPRLPRPRPRPASNPRP | -0.257
57 | RRIRERPPRLPRPRPRPATEPRP | -0.155
58 | RRIRERPPRLPRPRPRPATGPRP | -0.0619
59 | RRIRERPPRLPRPRPRPAVIPRP | -0.12
60 | RRIRERPPRLPRPRPRPAVNPRP | -0.00945
61 | RRIRERPPRLPRPRPRPAVWPRP | 0.421
62 | RRIRERPPRLPRPRPRPAWYPRP | -0.179
63 | RRIRERPPRLPRPRPRPAYRPRP | -0.429
64 | RRIRERPPRLPRPRPRPCAMPRP | -0.0091
65 | RRIRERPPRLPRPRPRPCAPPRP | -0.215
66 | RRIRERPPRLPRPRPRPCCCPRP | 0.15
67 | RRIRERPPRLPRPRPRPCCMPRP | -0.831
68 | RRIRERPPRLPRPRPRPCDKPRP | 0.0148
69 | RRIRERPPRLPRPRPRPCEKPRP | 0.0102
70 | RRIRERPPRLPRPRPRPCEYPRP | -0.0121
71 | RRIRERPPRLPRPRPRPCFIPRP | -0.73
72 | RRIRERPPRLPRPRPRPCGTPRP | -0.00758
73 | RRIRERPPRLPRPRPRPCIIPRP | -0.449
74 | RRIRERPPRLPRPRPRPCILPRP | -0.425
75 | RRIRERPPRLPRPRPRPCKIPRP | -0.00331

Row | Sequence | shrunken log2 fold change
76 | RRIRERPPRLPRPRPRPCKKPRP | 0.0187
77 | RRIRERPPRLPRPRPRPCLEPRP | -0.116
78 | RRIRERPPRLPRPRPRPCLMPRP | -0.0535
79 | RRIRERPPRLPRPRPRPCLRPRP | 0.0836
80 | RRIRERPPRLPRPRPRPCLSPRP | 0.0657
81 | RRIRERPPRLPRPRPRPCMIPRP | -0.2
82 | RRIRERPPRLPRPRPRPCMYPRP | -0.201
83 | RRIRERPPRLPRPRPRPCPMPRP | -0.511
84 | RRIRERPPRLPRPRPRPCPPPRP | -0.0496
85 | RRIRERPPRLPRPRPRPCQDPRP | -0.534
86 | RRIRERPPRLPRPRPRPCQFPRP | -0.131
87 | RRIRERPPRLPRPRPRPCQTPRP | -0.397
88 | RRIRERPPRLPRPRPRPCRFPRP | -0.455
89 | RRIRERPPRLPRPRPRPCSNPRP | 0.0168
90 | RRIRERPPRLPRPRPRPCVCPRP | -0.132
91 | RRIRERPPRLPRPRPRPCVFPRP | 0.0387
92 | RRIRERPPRLPRPRPRPCVIPRP | -0.0272
93 | RRIRERPPRLPRPRPRPCVNPRP | -0.182
94 | RRIRERPPRLPRPRPRPCVQPRP | -0.0665
95 | RRIRERPPRLPRPRPRPCWQPRP | -0.0429
96 | RRIRERPPRLPRPRPRPCYIPRP | -0.0464
97 | RRIRERPPRLPRPRPRPDAAPRP | 0.635
98 | RRIRERPPRLPRPRPRPDAGPRP | -0.0396
99 | RRIRERPPRLPRPRPRPDAYPRP | -0.532
100 | RRIRERPPRLPRPRPRPDCMPRP | -0.255

Row | Sequence | shrunken log2 fold change
101 | RRIRERPPRLPRPRPRPDCRPRP | 0.0169
102 | RRIRERPPRLPRPRPRPDESPRP | -0.304
103 | RRIRERPPRLPRPRPRPDGLPRP | 0.0424
104 | RRIRERPPRLPRPRPRPDHEPRP | -0.0943
105 | RRIRERPPRLPRPRPRPDHWPRP | 0.0945
106 | RRIRERPPRLPRPRPRPDHYPRP | -0.738
107 | RRIRERPPRLPRPRPRPDIHPRP | -0.512
108 | RRIRERPPRLPRPRPRPDLNPRP | -0.322
109 | RRIRERPPRLPRPRPRPDMRPRP | -3.48e-05
110 | RRIRERPPRLPRPRPRPDMWPRP | -0.0874
111 | RRIRERPPRLPRPRPRPDQQPRP | -0.278
112 | RRIRERPPRLPRPRPRPDQRPRP | -0.48
113 | RRIRERPPRLPRPRPRPDRRPRP | 0.0868
114 | RRIRERPPRLPRPRPRPDSTPRP | -0.0931
115 | RRIRERPPRLPRPRPRPDTKPRP | -0.00108
116 | RRIRERPPRLPRPRPRPDVHPRP | -0.435
117 | RRIRERPPRLPRPRPRPDWKPRP | -0.0141
118 | RRIRERPPRLPRPRPRPDYIPRP | -0.0061
119 | RRIRERPPRLPRPRPRPDYNPRP | -0.53
120 | RRIRERPPRLPRPRPRPEANPRP | -0.00156
121 | RRIRERPPRLPRPRPRPECRPRP | 0.0354
122 | RRIRERPPRLPRPRPRPECVPRP | 0.162
123 | RRIRERPPRLPRPRPRPEEDPRP | -0.058
124 | RRIRERPPRLPRPRPRPEEPPRP | 0.139
125 | RRIRERPPRLPRPRPRPEGPPRP | 0.23

Row | Sequence | shrunken log2 fold change
126 | RRIRERPPRLPRPRPRPEHDPRP | -0.0107
127 | RRIRERPPRLPRPRPRPEHVPRP | -0.017
128 | RRIRERPPRLPRPRPRPEIMPRP | -0.00047
129 | RRIRERPPRLPRPRPRPEKMPRP | -0.421
130 | RRIRERPPRLPRPRPRPEKSPRP | -0.14
131 | RRIRERPPRLPRPRPRPENMPRP | 0.000515
132 | RRIRERPPRLPRPRPRPEPGPRP | 0.667
133 | RRIRERPPRLPRPRPRPEPQPRP | 0.519
134 | RRIRERPPRLPRPRPRPEQNPRP | 0.139
135 | RRIRERPPRLPRPRPRPEQTPRP | 0.111
136 | RRIRERPPRLPRPRPRPERNPRP | -0.0672
137 | RRIRERPPRLPRPRPRPERWPRP | -0.00254
138 | RRIRERPPRLPRPRPRPESTPRP | 0.176
139 | RRIRERPPRLPRPRPRPETVPRP | 0.0162
140 | RRIRERPPRLPRPRPRPEWGPRP | 0.23
141 | RRIRERPPRLPRPRPRPEWRPRP | 0.334
142 | RRIRERPPRLPRPRPRPEYGPRP | -0.315
143 | RRIRERPPRLPRPRPRPFADPRP | -0.192
144 | RRIRERPPRLPRPRPRPFAHPRP | 0.117
145 | RRIRERPPRLPRPRPRPFDKPRP | -1.7
146 | RRIRERPPRLPRPRPRPFFEPRP | -0.0766
147 | RRIRERPPRLPRPRPRPFFMPRP | -0.0808
148 | RRIRERPPRLPRPRPRPFFTPRP | -0.106
149 | RRIRERPPRLPRPRPRPFGAPRP | 0.143
150 | RRIRERPPRLPRPRPRPFGEPRP | -0.122
